Measured values taken from the supplement of paper PMC5998384.

Columns and labels:
HeLa Kyoto [1] = experiment: melting temperature (median over replicates), in situ; higher = more thermally stable
HeLa Kyoto [2] = experiment: thermal stability score vs G1/S (z-score of summed log2 fold changes over temperatures); higher = more thermally stable than in G1/S
HeLa Kyoto [3] = experiment: solubility change mitosis vs G1/S (difference of NP-40 vs SDS log2 ratios) (log2 ratio difference); higher = more soluble in mitosis
HeLa Kyoto [4] = experiment: solubility in G1/S (NP-40 vs SDS abundance) (log2 ratio); higher = more soluble; conditions: cell cycle stage: G1/S
[5] = cell cycle stage: early G1 (4.5 h after nocodazole release)
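For melting temperature (median over replicates), in situ in this document: HeLa Kyoto cells synchronized by double thymidine or nocodazole block, proteins quantified by TMT10plex mass spectrometry, three independent biological replicates.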
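For solubility change mitosis vs G1/S (difference of NP-40 vs SDS log2 ratios) in this document: synchronized HeLa Kyoto cells (double thymidine block for G1/S, nocodazole release for mitosis), protein amounts in NP-40 versus SDS lysates quantified by mass spectrometry, three biological replicates.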
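For solubility in G1/S (NP-40 vs SDS abundance) in this document: HeLa Kyoto cells arrested at G1/S by double thymidine block, proteins quantified by TMT10plex mass spectrometry in mild NP-40 versus SDS extracts, three biological replicates.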
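For thermal stability score vs G1/S (z-score of summed log2 fold changes over temperatures) in this document: synchronized HeLa Kyoto cells, proteins quantified by TMT10plex mass spectrometry, three biological replicates, mitosis taken 0.5 h after nocodazole release, G1/S directly after double thymidine block.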

## MEKARRGGDGVPRGPVLHIVVVGFHHKKGCQVEFSYPPLIPGDGHDSHTLPEEWKYLPFLALPDGAHNYQEDTVFFHLPPRNGNGATVFGISCYRQIEAKALKVRQADITRETVQKSVCVLSKLPLYGLLQAKLQLITHAYFEEKDFSQISILKELYEHMNSSLGGASLEGSQVYLGLSPRDLVLHFRHKVLILFKLILLEKKVLFYISPVNKLVGALMTVLSLFPGMIEHGLSDCSQYRPRKSMSEDGGLQESNPCADDFVSASTADVSHTNLGTIRKVMAGNHGEDAAMKTEEPLFQVEDSSKGQEPNDTNQYLKPPSRPSPDSSESDWETLDPSVLEDPNLKEREQLGSDQTNLFPKDSVPSESLPITVQPQANTGQVVLIPGLISGLEEDQYGMPLAIFTKGYLCLPYMALQQHHLLSDVTVRGFVAGATNILFRQQKHLSDAIVEVEEALIQIHDPELRKLLNPTTADLRFADYLVRHVTENRDDVFLDGTGWEGGDEWIRAQFAVYIHALLAATLQLDNEKILSDYGTTFVTAWKNTHNYRVWNSNKHPALAEINPNHPFQGQYSVSDMKLRFSHSVQNSERGKKIGNVMVTTSRNVVQTGKAVGQSVGGAFSSAKTAMSSWLSTFTTSTSQSLTEPPDEKP [AVL9]
HeLa Kyoto [1]; cell cycle stage: G1/S
  melting temperature: 54.3 °C
HeLa Kyoto [1]; cell cycle stage: mitosis
  melting temperature: 54.1 °C
HeLa Kyoto [2]; [5]
  thermal stability score: 0.365
HeLa Kyoto [2]; cell cycle stage: mitosis
  thermal stability score: 0.676
HeLa Kyoto [3]
  solubility change mitosis (log2): -0.155
HeLa Kyoto [4]
  solubility in G1/S (log2): 0.0785

## MWTLVSWVALTAGLVAGTRCPDGQFCPVACCLDPGGASYSCCRPLLDKWPTTLSRHLGGPCQVDAHCSAGHSCIFTVSGTSSCCPFPEAVACGDGHHCCPRGFHCSADGRSCFQRSGNNSVGAIQCPDSQFECPDFSTCCVMVDGSWGCCPMPQASCCEDRVHCCPHGAFCDLVHTRCITPTGTHPLAKKLPAQRTNRAVALSSSVMCPDARSRCPDGSTCCELPSGKYGCCPMPNATCCSDHLHCCPQDTVCDLIQSKCLSKENATTDLLTKLPAHTVGDVKCDMEVSCPDGYTCCRLQSGAWGCCPFTQAVCCEDHIHCCPAGFTCDTQKGTCEQGPHQVPWMEKAPAHLSLPDPQALKRDVPCDNVSSCPSSDTCCQLTSGEWGCCPIPEAVCCSDHQHCCPQGYTCVAEGQCQRGSEIVAGLEKMPARRASLSHPRDIGCDQHTSCPVGQTCCPSLGGSWACCQLPHAVCCEDRQHCCPAGYTCNVKARSCEKEVVSAQPATFLARSPHVGVKDVECGEGHFCHDNQTCCRDNRQGWACCPYRQGVCCADRRHCCPAGFRCAARGTKCLRREAPRWDAPLRDPALRQLL [GRN]
HeLa Kyoto [1]; cell cycle stage: G1/S
  melting temperature: 54.9 °C
HeLa Kyoto [1]; cell cycle stage: mitosis
  melting temperature: 60.5 °C
HeLa Kyoto [2]; [5]
  thermal stability score: -2.57
HeLa Kyoto [2]; cell cycle stage: mitosis
  thermal stability score: -3.69
HeLa Kyoto [3]
  solubility change mitosis (log2): -0.134
HeLa Kyoto [4]
  solubility in G1/S (log2): 0.135

## MAAAAMAAAAGGGAGAARSLSRFRGCLAGALLGDCVGSFYEAHDTVDLTSVLRHVQSLEPDPGTPGSERTEALYYTDDTAMARALVQSLLAKEAFDEVDMAHRFAQEYKKDPDRGYGAGVVTVFKKLLNPKCRDVFEPARAQFNGKGSYGNGGAMRVAGISLAYSSVQDVQKFARLSAQLTHASSLGYNGAILQALAVHLALQGESSSEHFLKQLLGHMEDLEGDAQSVLDARELGMEERPYSSRLKKIGELLDQASVTREEVVSELGNGIAAFESVPTAIYCFLRCMEPDPEIPSAFNSLQRTLIYSISLGGDTDTIATMAGAIAGAYYGMDQVPESWQQSCEGYEETDILAQSLHRVFQKS [ADPRHL2]
HeLa Kyoto [1]; cell cycle stage: G1/S
  melting temperature: 53.3 °C
HeLa Kyoto [1]; cell cycle stage: mitosis
  melting temperature: 52.5 °C
HeLa Kyoto [2]; [5]
  thermal stability score: 0.365
HeLa Kyoto [2]; cell cycle stage: mitosis
  thermal stability score: -0.404
HeLa Kyoto [3]
  solubility change mitosis (log2): -0.105
HeLa Kyoto [4]
  solubility in G1/S (log2): 0.408

## MAEAAAAAGGTGLGAGASYGSAADRDRDPDPDRAGRRLRVLSGHLLGRPREALSTNECKARRAASAATAAPTATPAAQESGTIPKKRQEVMKWNGWGYNDSKFIFNKKGQIELTGKRYPLSGMGLPTFKEWIQNTLGVNVEHKTTSKASLNPSDTPPSVVNEDFLHDLKETNISYSQEADDRVFRAHGHCLHEIFLLREGMFERIPDIVLWPTCHDDVVKIVNLACKYNLCIIPIGGGTSVSYGLMCPADETRTIISLDTSQMNRILWVDENNLTAHVEAGITGQELERQLKESGYCTGHEPDSLEFSTVGGWVSTRASGMKKNIYGNIEDLVVHIKMVTPRGIIEKSCQGPRMSTGPDIHHFIMGSEGTLGVITEATIKIRPVPEYQKYGSVAFPNFEQGVACLREIAKQRCAPASIRLMDNKQFQFGHALKPQVSSIFTSFLDGLKKFYITKFKGFDPNQLSVATLLFEGDREKVLQHEKQVYDIAAKFGGLAAGEDNGQRGYLLTYVIAYIRDLALEYYVLGESFETSAPWDRVVDLCRNVKERITRECKEKGVQFAPFSTCRVTQTYDAGACIYFYFAFNYRGISDPLTVFEQTEAAAREEILANGGSLSHHHGVGKLRKQWLKESISDVGFGMLKSVKEYVDPNNIFGNRNLL [AGPS]
HeLa Kyoto [1]; cell cycle stage: G1/S
  melting temperature: 52.8 °C
HeLa Kyoto [1]; cell cycle stage: mitosis
  melting temperature: 52.9 °C
HeLa Kyoto [2]; [5]
  thermal stability score: 0.703
HeLa Kyoto [2]; cell cycle stage: mitosis
  thermal stability score: 1.37
HeLa Kyoto [3]
  solubility change mitosis (log2): -0.139
HeLa Kyoto [4]
  solubility in G1/S (log2): -0.0393

## MGDVLSTHLDDARRQHIAEKTGKILTEFLQFYEDQYGVALFNSMRHEIEGTGLPQAQLLWRKVPLDERIVFSGNLFQHQEDSKKWRNRFSLVPHNYGLVLYENKAAYERQVPPRAVINSAGYKILTSVDQYLELIGNSLPGTTAKSGSAPILKCPTQFPLILWHPYARHYYFCMMTEAEQDKWQAVLQDCIRHCNNGIPEDSKVEGPAFTDAIRMYRQSKELYGTWEMLCGNEVQILSNLVMEELGPELKAELGPRLKGKPQERQRQWIQISDAVYHMVYEQAKARFEEVLSKVQQVQPAMQAVIRTDMDQIITSKEHLASKIRAFILPKAEVCVRNHVQPYIPSILEALMVPTSQGFTEVRDVFFKEVTDMNLNVINEGGIDKLGEYMEKLSRLAYHPLKMQSCYEKMESLRLDGLQQRFDVSSTSVFKQRAQIHMREQMDNAVYTFETLLHQELGKGPTKEELCKSIQRVLERVLKKYDYDSSSVRKRFFREALLQISIPFLLKKLAPTCKSELPRFQELIFEDFARFILVENTYEEVVLQTVMKDILQAVKEAAVQRKHNLYRDSMVMHNSDPNLHLLAEGAPIDWGEEYSNSGGGGSPSPSTPESATLSEKRRRAKQVVSVVQDEEVGLPFEASPESPPPASPDGVTEIRGLLAQGLRPESPPPAGPLLNGAPAGESPQPKAAPEASSPPASPLQHLLPGKAVDLGPPKPSDQETGEQVSSPSSHPALHTTTEDSAGVQTEF [FAM129B]
HeLa Kyoto [1]; cell cycle stage: G1/S
  melting temperature: 51.6 °C
HeLa Kyoto [1]; cell cycle stage: mitosis
  melting temperature: 51.2 °C
HeLa Kyoto [2]; [5]
  thermal stability score: -0.711
HeLa Kyoto [2]; cell cycle stage: mitosis
  thermal stability score: 2.24
HeLa Kyoto [3]
  solubility change mitosis (log2): -0.0461
HeLa Kyoto [4]
  solubility in G1/S (log2): 0.283

## MERASLIQKAKLAEQAERYEDMAAFMKGAVEKGEELSCEERNLLSVAYKNVVGGQRAAWRVLSSIEQKSNEEGSEEKGPEVREYREKVETELQGVCDTVLGLLDSHLIKEAGDAESRVFYLKMKGDYYRYLAEVATGDDKKRIIDSARSAYQEAMDISKKEMPPTNPIRLGLALNFSVFHYEIANSPEEAISLAKTTFDEAMADLHTLSEDSYKDSTLIMQLLRDNLTLWTADNAGEEGGEAPQEPQS [SFN]
HeLa Kyoto [1]; cell cycle stage: G1/S
  melting temperature: 52.6 °C
HeLa Kyoto [1]; cell cycle stage: mitosis
  melting temperature: 53.1 °C
HeLa Kyoto [2]; [5]
  thermal stability score: -2.86
HeLa Kyoto [2]; cell cycle stage: mitosis
  thermal stability score: -2.25
HeLa Kyoto [3]
  solubility change mitosis (log2): 0.358
HeLa Kyoto [4]
  solubility in G1/S (log2): 0.311

## MYO5A
HeLa Kyoto [1]; cell cycle stage: G1/S
  melting temperature: 51.1 °C
HeLa Kyoto [1]; cell cycle stage: mitosis
  melting temperature: 49.6 °C
HeLa Kyoto [2]; [5]
  thermal stability score: 0.0646
HeLa Kyoto [2]; cell cycle stage: mitosis
  thermal stability score: -0.152
HeLa Kyoto [3]
  solubility change mitosis (log2): 0.167
HeLa Kyoto [4]
  solubility in G1/S (log2): -0.679

## MASGRRAPRTGLLELRAGAGSGAGGERWQRVLLSLAEDVLTVSPADGDPGPEPGAPREQEPAQLNGAAEPGAGPPQLPEALLLQRRRVTVRKADAGGLGISIKGGRENKMPILISKIFKGLAADQTEALFVGDAILSVNGEDLSSATHDEAVQVLKKTGKEVVLEVKYMKDVSPYFKNSTGGTSVGWDSPPASPLQRQPSSPGPTPRNFSEAKHMSLKMAYVSKRCTPNDPEPRYLEICSADGQDTLFLRAKDEASARSWATAIQAQVNTLTPRVKDELQALLAATSTAGSQDIKQIGWLTEQLPSGGTAPTLALLTEKELLLYLSLPETREALSRPARTAPLIATRLVHSGPSKGSVPYDAELSFALRTGTRHGVDTHLFSVESPQELAAWTRQLVDGCHRAAEGVQEVSTACTWNGRPCSLSVHIDKGFTLWAAEPGAARAVLLRQPFEKLQMSSDDGASLLFLDFGGAEGEIQLDLHSCPKTIVFIIHSFLSAKVTRLGLLA [SNTA1]
HeLa Kyoto [1]; cell cycle stage: G1/S
  melting temperature: 51.2 °C
HeLa Kyoto [1]; cell cycle stage: mitosis
  melting temperature: 49.2 °C
HeLa Kyoto [2]; [5]
  thermal stability score: -0.161
HeLa Kyoto [2]; cell cycle stage: mitosis
  thermal stability score: 0.249
HeLa Kyoto [3]
  solubility change mitosis (log2): -0.136
HeLa Kyoto [4]
  solubility in G1/S (log2): 0.0927
